The record followed here is patent US20230114801A1 (SYSTIMMUNE, published 2023).

One assay has as its target T1, human 4-1BB (human, UniProt Q07011 24-186, limits assumed).
T1 construct: Soluble antigen in Octet; construct not described
In words: BLI (Octet), binder on AHC sensor; antigen conditions not stated.

The next assay concerns the target T2, human PD-L1 (human, UniProt Q9NZQ7 19-238).
T2 construct: Soluble antigen in Octet; bought; also called human PD-L1 (Acro PD1-H5229)
Described as above.

Another assay has as its target T3, CD19 (UniProt P15391 20-291, limits assumed).
T3 sequence (looked up): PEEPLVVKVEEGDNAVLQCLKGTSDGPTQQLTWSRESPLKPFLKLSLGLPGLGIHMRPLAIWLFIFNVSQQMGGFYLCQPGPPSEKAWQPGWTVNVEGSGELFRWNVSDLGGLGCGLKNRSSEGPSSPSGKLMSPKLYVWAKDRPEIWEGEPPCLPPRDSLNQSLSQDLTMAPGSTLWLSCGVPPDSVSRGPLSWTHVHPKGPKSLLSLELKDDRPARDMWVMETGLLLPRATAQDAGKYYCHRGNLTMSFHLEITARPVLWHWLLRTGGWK
The description is as above.

Another assay deals with T4, human CD3 (human, UniProt P07766 23-126; P04234 22-105).
T4 construct: also called His-tagged human CD3; human CD3 (Acro CDD-H52W1)
In words: BLI (Octet), binder on AHC sensor, 100 nM human CD3, 1:1 fit. A general note: In BLI a coated tip is dipped into the sample, and binding shifts an interference pattern.

For the next assay, the target named is T5, human EGFR (human, UniProt P00533 25-645, limits assumed).
T5 construct: Soluble antigen in Octet; construct not described
In words: BLI (Octet), binder on AHC sensor, 200 nM human EGFR, 1:1 fit.

B1: SI-68P16 (other)
chain 1: DPVLTQSPSSLSASVGDRVTISCQSSQSVAKNNNLAWFQQKPGQAPKLLIYSASTLAAGVPSRFSGSGSGTDFTLTISSVQPEDFATYYCSARDSGNIQSFGGGTKVEIKGGGGSGGGGSGGGGSGGGGSQQLVESGGGLVKPGGSLRLSCAASGIDLSSNAIGWVRQAPGKGLEWVGVIFGSGNTYYASWAKGRFTISRSKNTVYLQMNSLRAEDTAVYYCARGGYSSDIWGQGTLVTVSSGGGGSGGGGSQVQLQQSGPGLVKPSETLSITCTVSGFSLTNYGVHWIRQAPGKGLEWLGVIWSGGNTDYNTPFTSRFTITKDNSKNQVYFKLRSVRADDTAIYYCARALTYYDYEFAYWGQGTLVTVSSASTKGPSVFPLAPSSKSTSGGTAALGCLVKDYFPEPVTVSWNSGALTSGVHTFPAVLQSSGLYSLSSVVTVPSSSLGTQTYICNVNHKPSNTKVDKRVEPKSCDKTHTCPPCPAPEAAGGPSVFLFPPKPKDTLMISRTPEVTCVVVDVSHEDPEVKFNWYVDGVEVHNAKTKPREEQYNSTYRVVSVLTVLHQDWLNGKEYKCAVSNKALPAPIEKTISKAKGQPREPQVYTLPPSRDELTKNQVSLSCAVKGFYPSDIAVEWESNGQPENNYKTTPPVLDSDGSFFLVSKLTVDKSRWQQGNVFSCSVMHEALHNHYTQKSLSLSPGGGGGSGGGGSDVVMTQSPSSVSASVGDRVTITCQASQNIRTYLSWYQQKPGKAPKLLIYAAANLASGVPSRFSGSGSGTDFTLTISDLEPGDAATYYCQSTYLGTDYVGGAFGGGTKLTVLGGGGSGGGGSGGGGSGGGGSEVQLVESGGGLVQPGGSLRLSCTASGFTISSYHMQWVRQAPGKGLEYIGTISSGGNVYYASSARGRFTISRPSSKNTVDLQMNSLRAEDTAVYYCARDSGYSDPMWGQGTLVTVSS
chain 2: ENVLTQSPASLSASPGERVTITCSASSSVSYMHWYQQKPGQAPKLWIYDTSKLASGVPSRFSGSGSGNDHTLTISSMEPEDFATYYCFQGSVYPFTFGQGTKVTVLGGGGSGGGGSGGGGSGGGGSQVTLKESGPGLVQPGQTLSLTCAFSGFSLSTSGMGVGWIRQPPGKGLEWLAHIWWDDDKRYNPALKSRLTISKDTSKNQVYLQMNSLDAEDTAVYYCARMELWSYYFDYWGQGTLVTVSSGGGGSGGGGSEIVLTQSPSTLSVSPGERATFSCRASQSIGTNIHWYQQKPGKPPRLLIKYASESISGIPDRFSGSGSGTEFTLTISSVQSEDFAVYYCQQNNNWPTTFGPGTKLTVLRTVAAPSVFIFPPSDEQLKSGTASVVCLLNNFYPREAKVQWKVDNALQSGNSQESVTEQDSKDSTYSLSSTLTLSKADYEKHKVYACEVTHQGLSSPVTKSFNRGECGGDKTHTCPPCPAPEAAGGPSVFLFPPKPKDTLMISRTPEVTCVVVDVSHEDPEVKFNWYVDGVEVHNAKTKPREEQYNSTYRVVSVLTVLHQDWLNGKEYKCAVSNKALPAPIEKTISKAKGQPREPQVYTLPPSRDELTKNQVSLWCLVKGFYPSDIAVEWESNGQPENNYKTTPPVLDSDGSFFLYSKLTVDKSRWQQGNVFSCSVMHEALHNRFTQKSLSLSPGGGGGSGGGGSDIQMTQSPSTLSASVGDRVTITCQASQSISSHLNWYQQKPGKAPKLLIYKASTLASGVPSRFSGSGSGTEFTLTISSLQPDDFATYYCQQGYSWGNVDNVFGGGTKVTVLGGGGSGGGGSGGGGSGGGGSEVQLLESGGGLVQPGGSLSLSCAASGFSFSSGYDMCWVRQAPGKGLEWIACIAAGSAGITYDANWAKGRFTISRDNSKNTLYLQMNSLRAEDTAVYYCARSAFSFDYAMDLWGQGTLVTVSS
notes: penta-miniGNC; D1 αCD3***** (humanized framework 4), D2 αCD19, D3 αEGFR (Fab), D4 α4-1BB, D5 αPD-L1
By Kd is commonly meant the concentration at which binding is half-saturated. A lower Kd goes with a tighter complex. Turning to B1, the values for the Kd with human 4-1BB, with human PD-L1 and with CD19 were 23.3 nM, 0.5 nM and 2.55 nM, respectively.

B2: SI-75X11 (bispecific antibody, human IgG1, kappa, L234A L235A)
chain 1: EVQLQESGGGLVQAGDSLSLSCLVSGRSFNSYTMGWFRQAPGKEREFVAAILWSGPTTYYADSVKGRFTISRDNAKNTVYLQMNSLKPEDTAVYYCAAALGVLVLAPGNVYSYWGQGTQVTVSSGGGGSGGGGSQVQLQESGGRLVQPGEPLSLTCKTSGIDLSSNAIGWVRQAPGKGLEWIGVIFGSGNTYYASWAKGRFTISRSTSTVYLKMNSLRSEDTAIYYCARGGYSSDIWGQGTLVTVSSASTKGPSVFPLAPSSKSTSGGTAALGCLVKDYFPEPVTVSWNSGALTSGVHTFPAVLQSSGLYSLSSVVTVPSSSLGTQTYICNVNHKPSNTKVDKRVEPKSCDKTHTCPPCPAPEAAGGPSVFLFPPKPKDTLMISRTPEVTCVVVDVSHEDPEVKFNWYVDGVEVHNAKTKPREEQYNSTYRVVSVLTVLHQDWLNGKEYKCAVSNKALPAPIEKTISKAKGQPREPQVYTLPPSRDELTKNQVSLSCAVKGFYPSDIAVEWESNGQPENNYKTTPPVLDSDGSFFLVSKLTVDKSRWQQGNVFSCSVMHEALHNHYTQKSLSLSPG
chain 2: DPQLTQSPSSLSATVGQRVTINCQSSQSVAKNNNLAWFQQKPGKPPKLLIYSASTLAAGVPSRFSGSGSGTQFTLTITRVQSEDFATYYCSARDSGNIQSFGGGTRVEIKRTVAAPSVFIFPPSDEQLKSGTASVVCLLNNFYPREAKVQWKVDNALQSGNSQESVTEQDSKDSTYSLSSTLTLSKADYEKHKVYACEVTHQGLSSPVTKSFNRGECGGDKTHTCPPCPAPEAAGGPSVFLFPPKPKDTLMISRTPEVTCVVVDVSHEDPEVKFNWYVDGVEVHNAKTKPREEQYNSTYRVVSVLTVLHQDWLNGKEYKCAVSNKALPAPIEKTISKAKGQPREPQVYTLPPSRDELTKNQVSLWCLVKGFYPSDIAVEWESNGQPENNYKTTPPVLDSDGSFFLYSKLTVDKSRWQQGNVFSCSVMHEALHNRFTQKSLSLSPG
notes: bi-miniGNC; D1 αEGFR VHH, D3 αCD3* (Fab)
On to B2, for which the Kd is 65.7 nM in the assay with human CD3 and 21.6 nM with human EGFR.
